# Test results as given in the DeepSol protein solubility set.
# Experiment: soluble on expression in E. coli; label from the status in PepcDB or PDB records
row,Sequence,soluble on expression in E. coli
1,MNELTGADFKSATADDNKKLFIETYGCQMNVADSEVIASVMQMAGYSVAETLEEADAVFMNTCSIRDNAEQKILNRLEFFHSLKKKKKALIVGVLGCMAERVKDDLITNHHVDLVVGPDAYLTLPELIAAVEAGEKAINVDLSTTETYRDVIPSRICGNHISGFVSIMRGCNNFCTYCIVPYTRGRERSRDVESILNEVADLVAKGYKEVTLLGQNVNSYRFEKPTGEVVTFPMLLRMVAEAAPGVRIRFTTSHPKDMSDETLEVIAQVPNVCKHIHLPVQSGSSRILKLMNRKYTREWYLDRVAAIKRIIPDCGLTTDIFSGFHSETEEDHQLSLSLMEECGYDAAFMFKYSERPGTYASKHLEDNVPEDVKVRRLNEIIALQNRLSAESNQRCIGKTYEVLVEGVSKRSRDQLFGRTEQNRVVVFDRGTHRIGDFVNVRVTEASSATLKGEEVLEHHHHHH,soluble
2,MGSDKIHHHHHHMAIYEARGFSSYLYPYKGPLEPFDYIAQFRPLKPPEDIDIEEYKRTQAPYCLSGKVTAEKNGSYKRNNASLVYRDLIFLDYDEIETGVNLPKIVSQTLWEYSYIIYPTIKHTPEKPRYRLVMKPSDVMTEATYKQVVKEIADKIGLPFDLASLTWSQLQGLPVTTGDPEDYQRYVNHGLDYPVPKNGSTPNRQVVTTYTPRPRSQRSITMRVIDTLFNGFGNEGGRNVALTKFVGLLFNKWVDCDLETAYELVQIANSVTTKPLPIDEIDRTFTSIAKAEYRKRG,not soluble
3,MLRGGVNDCKIKWEFLIGNSIDSSPILAKNGTIYLGSSNKNLYAINTDGSVKWFFKSGEIIECRPSIGKDGTIYFGSDKVYAINPDGTEKWRFDTKKAIVSDFTIFEDILYVTSMDGHLYAINPDGTEKWRFKTKKAIYATPIVSEDGTIYVGSNDNYLYAINPDGTEKWRFKTNDAITSAASIGKDGTIYFGSDKVYAINPDGTEKWNFYAGYWTVTRPAISEDGTIYVTSLDGHLYAINPDGTEKWRFKTGKRIESSPVIGNTDTIYFGSYDGHLYAINPDGTEKWNFETGSWIIATPVIDENGTIYFGTRNGKFYALFNLEHHHHHH,soluble
4,MIQDETLEREVADLVISTLNLDVSPESVDPEAPLYREGLGLDSIDILEIALVVSKRYGFQLRADNEDNVLEHHHHHH,not soluble
5,TTAIASDRLKKRFDRWDFDGNGALERADFEKEAQHIAEAFGKDAGAAEVQTLKNAFGGLFDYLAKEAGVGSDGSLTEEQFIRVTENLIFEQGEASFNRVLGPVVKGIVGMCDKNADGQINADEFAAWLTALGMSKAEAAEAFNQVDTNGNGELSLDELLTAVRDFHFGRLDVELLG,soluble
6,MGHHHHHHSHSPGSASGGSREYKVVMLGAGGVGKSAMTMQFISHQFPDYHDPTIEDAYKTQVRIDNEPAYLDILDTAGQAEFTAMREQYMRGGEGFIICYSVTDRQSFQEAAKFKELIFQVRHTYEIPLVLVGNKIDLEQFRQVSTEEGLSLAQEYNCGFFETSAALRFCIDDAFHGLVREIRKKESMP,soluble
7,MSLRIEEIRRYHESLMVELDRIYRIAEAARKKGLDPELSVEIPIAKNMAERVEKLMNLQGLAKRIMELEEGGLSRELICFKVADEIVEGKFGEMPKEEAIDKAVRTAVAIMTEGVVAAPIEGIARVRIDRENFLRVYYAGPIRSAGGTAQVISVLVADYVRRKAEIGRYVPTEEEILRYCEEIPLYKKVANLQYLPSDEEIRLIVSNCPICIDGEPTESAEVSGYRNLPRVETNRVRGGMALVIAEGIALKAPKLKKMVDEVGIEGWEWLDALIKGEGHHHHHH,soluble
8,MPYEMKFKGVYVLAMEDNSSFKGKIEVGDTVTGVDGKSFKSSEELMNYIKAQKVNQKVTVQFIQDGKAKEATGKLIELPTDKKAGIGIGLTDHTLEHHHHHH,soluble
9,MTPVQLKNYLEQLVGNQIKTSTMIWGPPGIGKSSIVAQIAEEGKLRFIDLRLSQLAPTDLRGLPVAIPTSKTKPQTGTSAWYPPEFLPKDGAGILFLDELNMAPPAMQGVAQQLILDRRVGSYEVPTDWFIWAAGNRKEDRASVFEMPAPLANRFLHLDVQPDFESFKQYALEQKYHEQVIAFLSFRPGLIHKLDLQRPAWPSPRSWAIANGLHQVNLDVSPAVGEGCAAEFSAFVQLYKDLPDLEAIFRGQGQNIGFPTEPSSGYASTIGLAVRAKDATAGVNAFHWLTDKADSEWVQLFVTDMAGQLRRAGHLGALSIMAKKEPKLKQFMQGYQELLAILEHHHHHH,soluble
10,MQTLQEILQQPELENKLLNQAKTVGFVTAMACCPNVLPPEEWLPFLWGGEEIAPFSDPIQLENYFEHIIALWNETRSQLLEGNWQWPTGYLLDEAEIVNQEVRDFCEGMLQGWQLARDDWEVLMPENSSDNTLLGGVLLSLSMLYDPETSIATLYEQGFTGLEQFAEIYHAIPVMLCGITQRGVTLAEAQ,not soluble
11,MTSQRCRRRYFMMIRERIEEKLRAAFQPVFLEVVDESYRHNVPAGSESHFKVVLVSDRFTGERFLNRHRMIYSTLAEELSTTVHALALHTYTIKEWEGLQDTVFASPPCRGAGSIALEHHHHHH,not soluble
12,HMKIAIFGTVGAGKSTISAEISKKLGYEIFKEPVEENPYFEQYYKDLKKTVFKMQIYMLTARSKQLKQAKNLENIIFDRTLLEDPIFMKVNYDLNNVDQTDYNTYIDFYNNVVLENLKIPENKLSFDIVIYLRVSTKTAISRIKKRGRSEELLIGEEYWETLNKNYEEFYKQNVYDFPFFVVDAELDVKTQIELIMNKLNSIKNPN,soluble
13,MKLKQLEGLLGDLEQFSNPKNRSVIGFDIDPESLETATLNAEELEVEIDFVQCDITKLELKGLIVDTVVMNPPFGTRKKGADMEFLSAAMKVASKAVYSLHKTSTRELRYDLPKLYKFHKRKEVDIAVDLWRFEPRQN,soluble
14,MNYELLTTENAPVKMWTKGVPVEADARQQLINTAKMPFIFKHIAVMPDVHLGKGSTIGSVIPTKGAIIPAAVGVDIGCGMNALRTALTAADLPENLAELRQAIETAVPHGRTTGRCKRDKGAWENPPFNVDAKWAELEAGYQWLTQKYPRFLNTNNYKHLGTLGTGNHFIEICLDESEQVWIMLHSGSRGIGNAIGTYFIDLAQKEMQDQLETLPSRDLAYFMEGTEYFDDYLRAVAWAQLFASLNRDAMMENVVTALQSITQKTVRQPQTLAMEEINCHHNYVQKEQLFGEEIYVTRKGAVSARAGQYGIIPGSMGAKSFIVRGLGNEESFCSCSHGAGRVMSRTKAKKLFSVEDQIRATAHVECRKDAEVIDEIPMAYKDIDAVMAAQSDLVEVIYTLRQVVCVKG,not soluble
15,MGSDKIHHHHHHMTGNDWIGSALHNSITCMGHSAAALAAPFAQASRRLIATLQAGGQVLSCGNGGSSGDAQHLASELVNRFETTRRALPAIALSTDSSVVTAIANDVCYEQIFARQIEALGRPGDCLVAFSTSGNSTNVIAAARTAQQRGMWVLALTGKEGGQLALLLRPVDIELRVPEQNTARIQEVHLVLIHALCSGVDASFVGDAPASVFHTGQVLRDWEALDEACTFRRPLVFTNGVFDVLHRGHVQYLAEARAEGACLVVGVNSDASVRRLGKGADRPVNSEEDRMAVLAGLQAVDFVTVFDDDTPLKLIQHLQPDVLIKGGDWPIERIVGADWVQAGGGRVLSIPFRHERSTTALLQKIRGSQP,not soluble
16,MGILKSLFTLGKSFVAQAEEAIDEAQGVRMLEQHIRDAKAELDKAGKSRVDLLARVKLSHDKLNDLRERKASLETRALAAMSKNVDAALLNEVAEEIARLENAILAEEQVLTNLEASRDAVEKAVTATGQRIAQFEQQLEVVKATEAMQRAQQAVTTSTVGAASNVSTAAESLKRLQTRQAERQARLDAAAQLEKVADGRDLDEKLAQAGIGATNKSNAQGVLARLQRQQGELEHHHHHH,not soluble
17,MSLKYVKSLFEIHPDIATKFRIKNQYLKTGYMNVLLCLIETVRRSPKEISKNDLADAYVALESLTDHGFKLDWLKKKLDQVTQKKEKEAAGETRMHEIGEELKDLKLKCSDLEAQLDKVKWKCSDLEAQLVKEKADVLAAIAPLGSSDDGVFDDFFEKQYTGFVRKYQIGASQTWFLLLNSRPKIVDFWSRANSKALLKARFLKLLAYAMCQNQKAWMSTGFMFYLPKRLLAFPKGNDTKSDHLSLYLDVAESESLPCGWRRHAQFSFTIVNHIPEKCSQRKDGEGSSFYEEIQLGHQEFLLFAIAENILASVRDARLQEGHHHHHH,not soluble
18,MASRKTVNRRQRPQRATSNVFAMFDQAQIQEFKEAFNMIDQNRDGFIDQEDLKDMFASLGKEVTEQFIDSMINEAPGAQPINFTMFLTLFGEKLTGTDPEEVIRNAFQCFDEDNSGKLNEEHLRELLTTMGERYSEEQVDELFRDAPIKGGQFDYVEFTRMLKHGTKDKDEA,not soluble
19,GMARRDISGAVDFAYLEGFAAGDFAVVDEVLALFREQAALWAPMLDPTHPGWKDAVHTVKGAARGVGAFNLGEVCERCEAGQESLEGVRTALDAALLDIAAYAHEQALRSLKG,soluble
20,MGSDKIHHHHHHMIASPEPEYLTPEEYLQLEEASPIKHEYINGYAYAMAGATDAHVTVAGNLFVLLRNHVRGSGCRVYIADMKARIESLNRYYYPDVMVTCDQRDQETPNHKRFPCLIVEVLSNSTEAFDRGDKFVDYQEIETLKEYVLINTKRQRVECFKRGDHGLWILQSYTEQDKIFRLNSVDFEGAIAELYEDVIFEQTTL,not soluble
21,MSLAKTIAYLRVSTSQQDLKNQKFEILDYAQKNGLSIDDFVEVEISSRKSVEERKIDYLVSMLSQGDRVIVSELSRIGRSTVEVLNIINELASKKVFLIAIKQNLNINGSENLQAKVMVTMFSLFAELERDLISDRTKRALEARKAAGVKLGRPKGATGVSKLDGMEGQITELLRKQVSLSSIAKIFSVSRGTVYSFIATRGLTAEGHHHHHH,not soluble
22,MCMTRQPAVAGQFYTDEPKRLRGDLQRMIPAETMKQRVKGIVAPHAGYVYSGHVAGAVYGAIEIPSTVVILGPNHHGFGAAAALYPEGEWLTPLGSVPIDVRLSQLVQKHVPLVEPEMSAHRFEHSLEVQVPFLQYRADVSIVPICLGFGDYERCRLLGEGIARAIREFGEDVLIVASSDMTHYESADAARAKDEQAIAEVLALNPEGLVQICRRKNITMCGVIPATVMLVTAKALGASKAELISYATSGDVTGDNRQVVAYAAMAVYLEHHHHHH,not soluble
23,IEKSTQYMAKRRIGALISVARDTGMDDYIETGIPLNAKISSQLLINIFIPNTPLHDGAVIIKGNEIASAASYLPLSDSPFLSKELGTRHRAALGISEVTDSITIVVSEETGGISLTKGGELF,not soluble
24,MSEDVSKNLSETLFVKHKQAKETSALTQYMPTSKKILDDREQQEDRAWYRHLRRLQWAWQGLSPIEMEGVLSRIASSTHSRTHDDWLDTVMGYHSGNWTFEWIKLGMEHQRRANDLKGEDAADELFTASLCFSIAGYPHLKNDNLALQAQVLANKAYSEGAEKTQYTIKQIEVPYQKRKIIANLHLPRTDKQLPVVMVSAGLDSLQTDMWRLFRNHFAPKDIAMLTVDMPSVGHSSHWPLTEDSSCLHQAVLNELYSIPYVDHHKVGLVGFRFGGNAMVRLSFLEQEKIKACVALGAPVHDLFTSPKKLQKMPKMYLDMLASRLGKSAVDINSMAGQMMAWSLKVQGFLSSRKTKVPILALSLEGDPVSPYSDNQLVALFSHYGQAKKISSKTITKGYEQSLDLAIKWLEDELLR,not soluble
25,MGSDKIHHHHHHMPASSHQPLDLAKFTLSSPTEIAQHLSNIAKHGHMVTVFANKGKNFILTRLLEVDYQAGVFTFDWGAEEETNTQVLNSERNVFVCSPEGVKTQFVAGQISQVMVDDRPAFQCRLPEQVIKLQRREFFRIQTPLGSPVFCRIGDFNQRSIDLALFDISLGGMSLWLPGIDTPGFDIGQQYLQCSIDLKPFGTLALGIEVRHRLTARMRNGNEAMRIGCSYLNLSAPMETIIQRYVGFLERERRAMVG,not soluble
